The values that follow come from article PMC2132842 (The Journal of Cell Biology, 1998).

For assay [1], the target named is GAL4/Imp βΔ1/261 (human, UniProt Q14974 262-876). Nature of the assay: two-hybrid.
Assay [2] deals with T1, GAL4/CAS (human, UniProt P55060 1-971).
T1 sequence (looked up): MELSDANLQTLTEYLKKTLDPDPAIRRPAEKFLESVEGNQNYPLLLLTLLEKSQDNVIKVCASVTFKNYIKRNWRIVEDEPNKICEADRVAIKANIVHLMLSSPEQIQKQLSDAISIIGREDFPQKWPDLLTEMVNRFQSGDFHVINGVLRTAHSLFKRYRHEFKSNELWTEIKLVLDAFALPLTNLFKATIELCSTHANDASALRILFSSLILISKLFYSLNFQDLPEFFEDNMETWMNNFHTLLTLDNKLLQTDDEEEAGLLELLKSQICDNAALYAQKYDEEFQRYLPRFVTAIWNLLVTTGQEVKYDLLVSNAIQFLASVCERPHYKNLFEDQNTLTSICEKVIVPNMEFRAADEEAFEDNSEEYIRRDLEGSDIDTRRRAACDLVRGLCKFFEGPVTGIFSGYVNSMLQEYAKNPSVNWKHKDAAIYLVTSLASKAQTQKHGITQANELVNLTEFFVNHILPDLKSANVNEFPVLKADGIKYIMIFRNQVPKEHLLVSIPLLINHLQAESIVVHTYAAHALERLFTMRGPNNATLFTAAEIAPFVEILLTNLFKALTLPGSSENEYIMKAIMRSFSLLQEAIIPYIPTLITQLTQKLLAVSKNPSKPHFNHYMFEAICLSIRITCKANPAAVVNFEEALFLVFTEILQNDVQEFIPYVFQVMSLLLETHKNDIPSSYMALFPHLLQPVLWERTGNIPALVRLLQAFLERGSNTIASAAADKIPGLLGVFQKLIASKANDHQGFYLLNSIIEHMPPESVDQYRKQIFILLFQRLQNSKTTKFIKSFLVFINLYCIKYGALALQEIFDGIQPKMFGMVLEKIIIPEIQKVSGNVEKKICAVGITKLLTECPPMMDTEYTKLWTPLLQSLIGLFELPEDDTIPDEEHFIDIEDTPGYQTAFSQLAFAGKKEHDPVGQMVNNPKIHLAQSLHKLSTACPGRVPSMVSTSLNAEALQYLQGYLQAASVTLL
Nature of the assay: two-hybrid.

GAL4/Imp βΔ1/261, sequence (Q14974 262-876, stated change not applied): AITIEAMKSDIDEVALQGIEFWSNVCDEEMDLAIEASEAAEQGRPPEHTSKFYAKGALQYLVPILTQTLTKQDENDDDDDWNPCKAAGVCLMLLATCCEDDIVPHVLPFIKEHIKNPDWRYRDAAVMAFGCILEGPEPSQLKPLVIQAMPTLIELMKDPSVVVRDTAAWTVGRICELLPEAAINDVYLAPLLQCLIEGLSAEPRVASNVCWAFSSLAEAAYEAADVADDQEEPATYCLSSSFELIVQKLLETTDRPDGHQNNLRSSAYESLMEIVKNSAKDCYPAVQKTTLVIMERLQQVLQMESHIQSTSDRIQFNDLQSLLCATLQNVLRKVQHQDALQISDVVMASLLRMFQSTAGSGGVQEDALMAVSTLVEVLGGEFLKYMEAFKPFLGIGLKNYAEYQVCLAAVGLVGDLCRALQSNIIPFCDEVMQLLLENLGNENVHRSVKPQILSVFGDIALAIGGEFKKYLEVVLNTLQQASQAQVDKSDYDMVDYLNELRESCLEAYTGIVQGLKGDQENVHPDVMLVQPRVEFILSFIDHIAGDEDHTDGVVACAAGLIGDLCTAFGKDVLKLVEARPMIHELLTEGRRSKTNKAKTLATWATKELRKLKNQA

B1: VP16/Imp α4 (natural protein, human, UniProt O00505 1-521, looked up)
chain: MAENPSLENHRIKSFKNKGRDVETMRRHRNEVTVELRKNKRDEHLLKKRNVPQEESLEDSDVDADFKAQNVTLEAILQNATSDNPVVQLSAVQAARKLLSSDRNPPIDDLIKSGILPILVKCLERDDNPSLQFEAAWALTNIASGTSAQTQAVVQSNAVPLFLRLLRSPHQNVCEQAVWALGNIIGDGPQCRDYVISLGVVKPLLSFISPSIPITFLRNVTWVIVNLCRNKDPPPPMETVQEILPALCVLIYHTDINILVDTVWALSYLTDGGNEQIQMVIDSGVVPFLVPLLSHQEVKVQTAALRAVGNIVTGTDEQTQVVLNCDVLSHFPNLLSHPKEKINKEAVWFLSNITAGNQQQVQAVIDAGLIPMIIHQLAKGDFGTQKEAAWAISNLTISGRKDQVEYLVQQNVIPPFCNLLSVKDSQVVQVVLDGLKNILIMAGDEASTIAEIIEECGGLEKIEVLQQHENEDIYKLAFEIIDQYFSGDDIDEDPCLIPEATQGGTYNFDPTANLQTKEFNF
In the case of B1, the β-gal activity in assay [1] amounted to 1850 mOD/ml; in assay [2], 174 mOD/ml.

B2: VP16/Imp α1 (natural protein)
chain: not shown
For the molecule B2, the β-gal activity in assay [1] came to 2350 mOD/ml; in assay [2] it was 101 mOD/ml.
